Results as given in the supplement of paper PMC7125110.
± gives the standard error. Fewer inactive variants are shown than the library holds.

B1: glmS ribozyme (parent)
chain: AUAAAAGCGCCAGAACUACAGAAAUGUAGUUGACGAGGAGGAGGUUUAUCGAAUUUUCGGCGGAUGCCUCCAAA

Experiments:
Details in all cases: with glucosamine-6-phosphate
glucosamine-6-phosphate [1] = variants of: B1; test: self-cleavage kobs at 160 uM GlcN6P; higher = faster cleavage; RNA array
Outline: (§1)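 Using a hybridised Cy3 probe at 37 °C, barcoded ribozyme variants transcribed in situ by E. coli RNA polymerase on sequenced MiSeq chips were monitored across tiles imaged over ~14 h. The flow contained glucosamine-6-phosphate from 40 μM to 10 mM in HEPES/KCl/Mg(OAc)2 buffer. Signals were normalised to baseline and to non-cleaving reference variants before per-tile medians were fit to one- or two-exponential decays to yield kobs. Weighted Michaelis–Menten fits across concentrations gave kcat and KM.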

glucosamine-6-phosphate [2] = variants of: B1; test: self-cleavage kobs at 640 uM GlcN6P; higher = faster cleavage; RNA array
Outline: as §1

glucosamine-6-phosphate [3] = variants of: B1; test: self-cleavage kobs at 2500 uM GlcN6P; higher = faster cleavage; RNA array
Outline: as §1

glucosamine-6-phosphate [4] = variants of: B1; test: self-cleavage kobs at 10000 uM GlcN6P; higher = faster cleavage; RNA array
Outline: as §1

Variant	self-cleavage kobs at 160 uM GlcN6P (glucosamine-6-phosphate [1])	self-cleavage kobs at 640 uM GlcN6P (glucosamine-6-phosphate [2])	self-cleavage kobs at 2500 uM GlcN6P (glucosamine-6-phosphate [3])	self-cleavage kobs at 10000 uM GlcN6P (glucosamine-6-phosphate [4])
G29A U31G G62A	< 1e-05 s⁻¹	–	–	–
U49G C61U C71A	–	< 1e-05 s⁻¹	< 1e-05 s⁻¹	< 1e-05 s⁻¹
G13U G29A A33U	–	< 1e-05 s⁻¹	–	–
C10U C16U G63U	–	< 1e-05 s⁻¹	–	< 1e-05 s⁻¹
C50G G63A A64U	0.000145 ± 4.6e-05 s⁻¹	0.000136 ± 4.5e-05 s⁻¹	–	–
G32U G41A C68A	–	< 1e-05 s⁻¹	–	–
C8A A36G A42U A53G	–	< 1e-05 s⁻¹	< 1e-05 s⁻¹	–
A15G U49G G63U C67A	< 1e-05 s⁻¹	< 1e-05 s⁻¹	–	–
A39C G59C C68U	–	< 1e-05 s⁻¹	–	–
U31C G43U A48U U55A	< 1e-05 s⁻¹	< 1e-05 s⁻¹	< 1e-05 s⁻¹	–
C11G G41U A48G A52C	–	< 1e-05 s⁻¹	< 1e-05 s⁻¹	–
C11A U30C G62A	< 1e-05 s⁻¹	< 1e-05 s⁻¹	< 1e-05 s⁻¹	–
U30C A33G A52G	–	< 1e-05 s⁻¹	–	–
G13U A14U A48U	–	< 1e-05 s⁻¹	< 1e-05 s⁻¹	–
C11U A39G G43U C58G C70A	< 1e-05 s⁻¹	–	< 1e-05 s⁻¹	–
C11A U54A U55G G63U U65G	–	< 1e-05 s⁻¹	–	–
G41C G51C A64C	< 1e-05 s⁻¹	–	–	–
G9A U30G A39U	–	< 1e-05 s⁻¹	–	–
G60U C71A	–	< 1e-05 s⁻¹	< 1e-05 s⁻¹	< 1e-05 s⁻¹
A15C U30C U31G U69G	–	0.00017 ± 4.8e-05 s⁻¹	–	–
A12G G66C C68A	–	6.5e-05 ± 2.5e-05 s⁻¹	–	–

Variant	self-cleavage kobs at 160 uM GlcN6P (glucosamine-6-phosphate [1])	self-cleavage kobs at 640 uM GlcN6P (glucosamine-6-phosphate [2])	self-cleavage kobs at 2500 uM GlcN6P (glucosamine-6-phosphate [3])	self-cleavage kobs at 10000 uM GlcN6P (glucosamine-6-phosphate [4])
A12G G41U G51C C71A	< 1e-05 s⁻¹	< 1e-05 s⁻¹	< 1e-05 s⁻¹	–
C34G G38U G44C U49C	< 1e-05 s⁻¹	–	–	–
C58G A64G U65A G66U C67G U69C	–	9.79e-05 ± 2.9e-05 s⁻¹	–	–
A15G C16A U30C	–	0.000332 ± 0.00012 s⁻¹	0.00063 ± 0.00023 s⁻¹	–
G7C C50U G51U C70A	< 1e-05 s⁻¹	–	< 1e-05 s⁻¹	–
G7A G40A A42C C67G	–	< 1e-05 s⁻¹	< 1e-05 s⁻¹	–
A42G U46G U65C C68U	< 1e-05 s⁻¹	–	–	–
C10A A33G A36U G37C C61G	< 1e-05 s⁻¹	< 1e-05 s⁻¹	–	–
A48U C58U A64C	–	< 1e-05 s⁻¹	< 1e-05 s⁻¹	–
U31G G37C U69G	–	9.22e-05 ± 3.2e-05 s⁻¹	–	–
G9U A39G	< 1e-05 s⁻¹	–	< 1e-05 s⁻¹	–
A33G G40C G41C G43A U49A	–	< 1e-05 s⁻¹	< 1e-05 s⁻¹	–
G13U G32A G41C G63U C71A	< 1e-05 s⁻¹	< 1e-05 s⁻¹	< 1e-05 s⁻¹	–
A12C A52U C71U	–	4.93e-05 ± 1.4e-05 s⁻¹	0.000116 ± 2.4e-05 s⁻¹	–
C16G A48G U56G G59A	–	< 1e-05 s⁻¹	–	–
G41U U45G U47A C71U	–	5.62e-05 ± 2.2e-05 s⁻¹	–	–
U30C G37U C58A C68G	–	7.09e-05 ± 2.2e-05 s⁻¹	0.000165 ± 3.6e-05 s⁻¹	–
G41C G51U U55G	–	< 1e-05 s⁻¹	< 1e-05 s⁻¹	–
G29A A39C C61G	< 1e-05 s⁻¹	< 1e-05 s⁻¹	–	< 1e-05 s⁻¹
G7A G37A	< 1e-05 s⁻¹	< 1e-05 s⁻¹	–	< 1e-05 s⁻¹
C10G G29C C50G C58G A64U C70A	0.000119 ± 3.1e-05 s⁻¹	0.000201 ± 6.9e-05 s⁻¹	0.000165 ± 4e-05 s⁻¹	–

Variant	self-cleavage kobs at 160 uM GlcN6P (glucosamine-6-phosphate [1])	self-cleavage kobs at 640 uM GlcN6P (glucosamine-6-phosphate [2])	self-cleavage kobs at 2500 uM GlcN6P (glucosamine-6-phosphate [3])	self-cleavage kobs at 10000 uM GlcN6P (glucosamine-6-phosphate [4])
G7A G38A G63U C70G	–	0.000112 ± 3.6e-05 s⁻¹	–	–
G35A U54C A64C	–	< 1e-05 s⁻¹	–	–
G9A A36G A64C	< 1e-05 s⁻¹	–	< 1e-05 s⁻¹	–
A33C G41A	< 1e-05 s⁻¹	< 1e-05 s⁻¹	–	–
G9A G51U A52C	–	< 1e-05 s⁻¹	< 1e-05 s⁻¹	–
G9U U46G C58G	–	< 1e-05 s⁻¹	< 1e-05 s⁻¹	–
G9U G37C	< 1e-05 s⁻¹	< 1e-05 s⁻¹	< 1e-05 s⁻¹	< 1e-05 s⁻¹
G29C U65G C67G	–	0.000341 ± 0.00016 s⁻¹	–	–
C8A A33U	< 1e-05 s⁻¹	–	< 1e-05 s⁻¹	< 1e-05 s⁻¹
A12U G37A U56G	–	0.00137 ± 0.00022 s⁻¹	0.00379 ± 0.00089 s⁻¹	–
G7A G37C A39U U47G	–	< 1e-05 s⁻¹	–	–
A14G G29A G32U	–	0.000272 ± 0.0001 s⁻¹	0.000568 ± 0.00014 s⁻¹	–
C8U A52G	< 1e-05 s⁻¹	< 1e-05 s⁻¹	< 1e-05 s⁻¹	< 1e-05 s⁻¹
G7A G43C C71U	< 1e-05 s⁻¹	< 1e-05 s⁻¹	–	–
G51U C61A C71A	< 1e-05 s⁻¹	< 1e-05 s⁻¹	< 1e-05 s⁻¹	–
A6U C11A A12U C34G C50U U55G	< 1e-05 s⁻¹	< 1e-05 s⁻¹	< 1e-05 s⁻¹	–
G38U U65G C70U	< 1e-05 s⁻¹	< 1e-05 s⁻¹	–	–
A12C G29A G43U C71G	–	< 1e-05 s⁻¹	< 1e-05 s⁻¹	–
G9A G44C C68A	< 1e-05 s⁻¹	< 1e-05 s⁻¹	< 1e-05 s⁻¹	–
